Experimental data taken from US20260167699A1 (Chugai, published 2026).

B1: GpH7-A5/GpH7-B3 variant E333_13S/GpL16-k0 (antibody, human IgG1, kappa)
heavy 1: not shown
heavy 2: not shown
light: DIVMTQSPLSLPVTPGEPASISCQASESLVHSNRNTYLHWYLQKPGQSPQLLIYKVSNRFSGVPDRFSGSGSGTDFTLKISRVEAEDVGVYYCSQNTHVPPTFGQGTKVEIERTVAAPSVFIFPPSDEQLKSGTASVVCLLNNFYPREAKVQWKVDNALQSGNSQESVTEQDSKDSTYSLSSTLTLSKADYEKHKVYACEVTHQGLSSPVTKSFNRGEC
notes: copies: 1 + 1 + 2
B2: GpH7-A5/GpH7-B3 variant E333_14T/GpL16-k0 (antibody, human IgG1, kappa)
heavy 1: not shown
heavy 2: not shown
light: DIVMTQSPLSLPVTPGEPASISCQASESLVHSNRNTYLHWYLQKPGQSPQLLIYKVSNRFSGVPDRFSGSGSGTDFTLKISRVEAEDVGVYYCSQNTHVPPTFGQGTKVEIERTVAAPSVFIFPPSDEQLKSGTASVVCLLNNFYPREAKVQWKVDNALQSGNSQESVTEQDSKDSTYSLSSTLTLSKADYEKHKVYACEVTHQGLSSPVTKSFNRGEC
notes: copies: 1 + 1 + 2
B3: GpH7-A5/GpH7-B3 variant E333_15Y/GpL16-k0 (antibody, human IgG1, kappa)
heavy 1: not shown
heavy 2: not shown
light: DIVMTQSPLSLPVTPGEPASISCQASESLVHSNRNTYLHWYLQKPGQSPQLLIYKVSNRFSGVPDRFSGSGSGTDFTLKISRVEAEDVGVYYCSQNTHVPPTFGQGTKVEIERTVAAPSVFIFPPSDEQLKSGTASVVCLLNNFYPREAKVQWKVDNALQSGNSQESVTEQDSKDSTYSLSSTLTLSKADYEKHKVYACEVTHQGLSSPVTKSFNRGEC
notes: copies: 1 + 1 + 2
B4: GpH7-A5/GpH7-B3 variant E333_16H/GpL16-k0 (antibody, human IgG1, kappa)
heavy 1: not shown
heavy 2: not shown
light: DIVMTQSPLSLPVTPGEPASISCQASESLVHSNRNTYLHWYLQKPGQSPQLLIYKVSNRFSGVPDRFSGSGSGTDFTLKISRVEAEDVGVYYCSQNTHVPPTFGQGTKVEIERTVAAPSVFIFPPSDEQLKSGTASVVCLLNNFYPREAKVQWKVDNALQSGNSQESVTEQDSKDSTYSLSSTLTLSKADYEKHKVYACEVTHQGLSSPVTKSFNRGEC
notes: copies: 1 + 1 + 2
B5: GpH7-A5/GpH7-B3 variant E333_18N/GpL16-k0 (antibody, human IgG1, kappa)
heavy 1: not shown
heavy 2: not shown
light: DIVMTQSPLSLPVTPGEPASISCQASESLVHSNRNTYLHWYLQKPGQSPQLLIYKVSNRFSGVPDRFSGSGSGTDFTLKISRVEAEDVGVYYCSQNTHVPPTFGQGTKVEIERTVAAPSVFIFPPSDEQLKSGTASVVCLLNNFYPREAKVQWKVDNALQSGNSQESVTEQDSKDSTYSLSSTLTLSKADYEKHKVYACEVTHQGLSSPVTKSFNRGEC
notes: copies: 1 + 1 + 2
B6: GpH7-A5/GpH7-B3 variant E333_19Q/GpL16-k0 (antibody, human IgG1, kappa)
heavy 1: not shown
heavy 2: not shown
light: DIVMTQSPLSLPVTPGEPASISCQASESLVHSNRNTYLHWYLQKPGQSPQLLIYKVSNRFSGVPDRFSGSGSGTDFTLKISRVEAEDVGVYYCSQNTHVPPTFGQGTKVEIERTVAAPSVFIFPPSDEQLKSGTASVVCLLNNFYPREAKVQWKVDNALQSGNSQESVTEQDSKDSTYSLSSTLTLSKADYEKHKVYACEVTHQGLSSPVTKSFNRGEC
notes: copies: 1 + 1 + 2
B7: GpH7-A5/GpH7-B3 variant E333_20W/GpL16-k0 (antibody, human IgG1, kappa)
heavy 1: not shown
heavy 2: not shown
light: DIVMTQSPLSLPVTPGEPASISCQASESLVHSNRNTYLHWYLQKPGQSPQLLIYKVSNRFSGVPDRFSGSGSGTDFTLKISRVEAEDVGVYYCSQNTHVPPTFGQGTKVEIERTVAAPSVFIFPPSDEQLKSGTASVVCLLNNFYPREAKVQWKVDNALQSGNSQESVTEQDSKDSTYSLSSTLTLSKADYEKHKVYACEVTHQGLSSPVTKSFNRGEC
notes: copies: 1 + 1 + 2
B8: GpH7-A5/GpH7-B3 variant G236_02A/GpL16-k0 (antibody, human IgG1, kappa)
heavy 1: not shown
heavy 2: not shown
light: DIVMTQSPLSLPVTPGEPASISCQASESLVHSNRNTYLHWYLQKPGQSPQLLIYKVSNRFSGVPDRFSGSGSGTDFTLKISRVEAEDVGVYYCSQNTHVPPTFGQGTKVEIERTVAAPSVFIFPPSDEQLKSGTASVVCLLNNFYPREAKVQWKVDNALQSGNSQESVTEQDSKDSTYSLSSTLTLSKADYEKHKVYACEVTHQGLSSPVTKSFNRGEC
notes: copies: 1 + 1 + 2
B9: GpH7-A5/GpH7-B3 variant G236_03V/GpL16-k0 (antibody, human IgG1, kappa)
heavy 1: not shown
heavy 2: not shown
light: DIVMTQSPLSLPVTPGEPASISCQASESLVHSNRNTYLHWYLQKPGQSPQLLIYKVSNRFSGVPDRFSGSGSGTDFTLKISRVEAEDVGVYYCSQNTHVPPTFGQGTKVEIERTVAAPSVFIFPPSDEQLKSGTASVVCLLNNFYPREAKVQWKVDNALQSGNSQESVTEQDSKDSTYSLSSTLTLSKADYEKHKVYACEVTHQGLSSPVTKSFNRGEC
notes: copies: 1 + 1 + 2

biological target: T1, FcγRIIIa (human, UniProt P08637 17-208); assay: SPR (Biacore);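 further: antibody variants captured on an SPR sensor chip, with FcγRIIIa passed over as analyte in HBS-EP+ buffer at 25 °C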
T1 construct: extracellular domain; also called 3a; FcγRIIIa extracellular domain
T1 sequence (P08637 other isoform, or with tags, fused parts or gaps): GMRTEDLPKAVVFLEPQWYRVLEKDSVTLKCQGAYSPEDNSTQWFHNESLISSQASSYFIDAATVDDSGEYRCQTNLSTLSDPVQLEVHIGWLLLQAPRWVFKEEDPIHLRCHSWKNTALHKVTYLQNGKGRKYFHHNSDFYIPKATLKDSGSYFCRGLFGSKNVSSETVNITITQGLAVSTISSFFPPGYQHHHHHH
Method: The antibody of interest was analyzed for its interaction with FcγR using a BiaCore™ T100, BiaCore™ A100, or BiaCore™ 4000 surface plasmon resonance system (GE Healthcare Japan Corp.). The running buffer used was HBS-EP+ (GE Healthcare Japan Corp.). The assay temperature was set to 25° C. The sensor chips used were: a chip prepared by immobilizing antigenic peptides onto Series S Sensor Chip CM5 (GE Healthcare Japan Corp.) by the amine coupling method; a chip prepared by immobilizing antigenic peptides biotinylated in advance onto Series S Sensor Chip SA (certified) (GE Healthcare Japan Corp.) through their interaction; a chip prepared by immobilizing protein L (ACTIGEN, BioVision, Inc.) onto Series S Sensor Chip CM5 (GE Healthcare Japan Corp.); and a chip prepared by immobilizing protein A/G (Thermo Fisher Scientific K.K.) onto Series S Sensor Chip CM5 (GE Healthcare Japan Corp.). The antibody of interest was captured onto any of these chips and allowed to interact with FcγR diluted with a running buffer. The antibody captured on the chip was washed off through the reaction of 10 mM glycine-HCl (pH 1.5) to regenerate the chip, which was repetitively used.

Going from B1 to B2, the “He/Con 3a” value falls from 106 % of GpH7-A5/GpH7-B3/GpL16-k0 to 100 % of GpH7-A5/GpH7-B3/GpL16-k0.

Compared with B3, B4 is higher in “He/Con 3a” value: 101 % of GpH7-A5/GpH7-B3/GpL16-k0 for the first, 106 % of GpH7-A5/GpH7-B3/GpL16-k0 for the second.

Compared with B5, B6 is higher in “He/Con 3a” value: 76.2 % of GpH7-A5/GpH7-B3/GpL16-k0 for the first, 101 % of GpH7-A5/GpH7-B3/GpL16-k0 for the second.

Going from B7 to B8, the “He/Con 3a” value falls from 104 % of GpH7-A5/GpH7-B3/GpL16-k0 to 77 % of GpH7-A5/GpH7-B3/GpL16-k0.

B9 was tested, and the “He/Con 3a” value was 53.8 % of GpH7-A5/GpH7-B3/GpL16-k0.
